{"source": "patent US20030059812", "biological_target": "3H-histones isolated from murine erythroleukemia cells", "data": [{"protein": "HDAC9a-FLAG (C-terminal FLAG-tagged HDAC9a, expressed from pFLAG-CMV-5b-HDAC9a, plasmid VR2) (protein) MHSMISSVDVKSEVPVGLEPISPLDLRTDLRMMMPVVDPVVREKQLQQELLLIQQQQQIQKQLLIAEFQKQHENLTRQHQAQLQEHIKELLAIKQQQELLEKEQKLEQQRQEQEVERHRREQQLPPLRGKDRGRERAVASTEVKQKLQEFLLSKSATKDTPTNGKNHSVSRHPKLWYTAAHHTSLDQSSPPLSGTSPSYKYTLPGAQDAKDDFPLRKTASEPNLKVRSRLKQKVAERRSSPLLRRKDGNVVTSFKKRMFEVTESSVSSSSPGSGPSSPNNGPTGSVTENETSVLPPTPHAEQMVSQQRILIHEDSMNLLSLYTSPSLPNITLGLPAVPSQLNASNSLKEKQKCETQTLRQGVPLPGQYGGSIPASSSHPHVTLEGKPPNSSHQALLQHLLLKEQMRQQKLLVAGGVPLHPQSPLATKERISPGIRGTHKLPRHRPLNRTQSAPLPQSTLAQLVIQQQHQQFLEKQKQYQQQIHMNKLLSKSIEQLKQPGSHLEEAEEELQGDQAMQEDRAPSSGNSTRSDSSACVDDTLGQVGAVKVKEEPVDSDEDAQIQEMESGEQAAFMQQPFLEPTHTRALSVRQAPLAAVGMDGLEKHRLVSRTHSSPAASVLPHPAMDRPLQPGSATGIAYDPLMLKHQCVCGNSTTHPEHAGRIQSIWSRLQETGLLNKCERIQGRKASLEEIQLVHSEHHSLLYGTNPLDGQKLDPRILLGDDSQKFFSSLPCGGLGVDSDTIWNELHSSGAARMAVGCVIELASKVASGELKNGFAVVRPPGHHAEESTAMGFCFFNSVAITAKYLRDQLNISKILIVDLDVHHGNGTQQAFYADPSILYISLHRYDEGNFFPGSGAPNEVRFISLEPHFYLYLSGNCIA", "values": [{"measurement": "HDAC enzymatic activity (3H-acetic acid released from 3H-histones)", "result": "HDAC9a-FLAG deacetylated 3H-acetyl-histones"}]}]}
